In paper PMC5086636 (Toxins, 2016):
Several values for one entry are separate records, joined by “and”; a condition that tells them apart may be missing. Equal values may be shown once.

What was measured:
[1] = target: Synaptotagmin-II 8-61 (UniProt P29101); assay: ITC; details: cited from earlier work
[2] = target: Synaptotagmin-II 40-60, P29101
[3] = target: T1, Syt-II_(40-60) peptide (amino acid residues 40-60 of the mouse synaptotagmin protein) (mouse); assay: BLI; Octet Red; […]; 25 °C; PBS + 0.02% Tween 20, 1% BSA, 0.05% azide; […]; details: one partner purified
T1 peptide: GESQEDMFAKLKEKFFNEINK

Sequence of Synaptotagmin-II 40-60, P29101 (P29101 40-60): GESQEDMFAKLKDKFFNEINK
Sequence of Synaptotagmin-II 8-61 (P29101 8-61): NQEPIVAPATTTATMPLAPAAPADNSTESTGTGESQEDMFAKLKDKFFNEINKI

Molecule: BoNT/B 858-1291 (from UniProt P10844)
- Kd [1]: 34 nM

B1: BoNT/B, P10844 (protein)
chain: PVTINNFNYNDPIDNNNIIMMEPPFARGTGRYYKAFKITDRIWIIPERYTFGYKPEDFNKSSGIFNRDVCEYYDPDYLNTNDKKNIFLQTMIKLFNRIKSKPLGEKLLEMIINGIPYLGDRRVPLEEFNTNIASVTVNKLISNPGEVERKKGIFANLIIFGPGPVLNENETIDIGIQNHFASREGFGGIMQMKFCPEYVSVFNNVQENKGASIFNRRGYFSDPALILMHELIHVLHGLYGIKVDDLPIVPNEKKFFMQSTDAIQAEELYTFGGQDPSIITPSTDKSIYDKVLQNFRGIVDRLNKVLVCISDPNININIYKNKFKDKYKFVEDSEGKYSIDVESFDKLYKSLMFGFTETNIAENYKIKTRASYFSDSLPPVKIKNLLDNEIYTIEEGFNISDKDMEKEYRGQNKAINKQAYEEISKEHLAVYKIQMCKSVKAPGICIDVDNEDLFFIADKNSFSDDLSKNERIEYNTQSNYIENDFPINELILDTDLISKIELPSENTESLTDFNVDVPVYEKQPAIKKIFTDENTIFQYLYSQTFPLDIRDISLTSSFDDALLFSNKVYSFFSMDYIKTANKVVEAGLFAGWVKQIVNDFVIEANKSNTMDKIADISLIVPYIGLALNVGNETAKGNFENAFEIAGASILLEFIPELLIPVVGAFLLESYIDNKNKIIKTIDNALTKRNEKWSDMYGLIVAQWLSTVNTQFYTIKEGMYKALNYQAQALEEIIKYRYNIYSEKEKSNINIDFNDINSKLNEGINQAIDNINNFINGCSVSYLMKKMIPLAVEKLLDFDNTLKKNLLNYIDENKLYLIGSAEYEKSKVNKYLKTIMPFDLSIYTNDTILIEMFNKYNSEILNNIILNLRYKDNNLIDLSGYGAKVEVYDGVELNDKNQFKLTSSANSKIRVTQNQNIIFNSVFLDFSVSFWIRIPKYKNDGIQNYIHNEYTIINCMKNNSGWKISIRGNRIIWTLIDINGKTKSVFFEYNIREDISEYINRWFFVTITNNLNNAKIYINGKLESNTDIKDIREVIANGEIIFKLDGDIDRTQFIWMKYFSIFNTELSQSNIEERYKIQSYSEYLKDFWGNPLMYNKEYYMFNAGNKNSYIKLKKDSPVGEILTRSKYNQNSKYINYRDLYIGEKFIIRRKSNSQSINDDIVRKEDYIYLDFFNLNQEWRVYTYKYFKKEEEKLFLAPISDSDEFYNTIQIKEYDEQPTYSCQLLFKKDEESTDEIGLIGIHRFYESGIVFEEYKDYFCISKWYLKEVKRKPYNLKLGCNWQFIPKDEGWTE
- Kd [2]: 20 nM and 90 nM

B2: Botulinum neurotoxin type B (natural protein)
chain: MPVTINNFNYNDPIDNNNIIMMEPPFARGTGRYYKAFKITDRIWIIPERYTFGYKPEDFNKSSGIFNRDVCEYYDPDYLNTNDKKNIFLQTMIKLFNRIKSKPLGEKLLEMIINGIPYLGDRRVPLEEFNTNIASVTVNKLISNPGEVERKKGIFANLIIFGPGPVLNENETIDIGIQNHFASREGFGGIMQMKFCPEYVSVFNNVQENKGASIFNRRGYFSDPALILMHELIHVLHGLYGIKVDDLPIVPNEKKFFMQSTDAIQAEELYTFGGQDPSIITPSTDKSIYDKVLQNFRGIVDRLNKVLVCISDPNININIYKNKFKDKYKFVEDSEGKYSIDVESFDKLYKSLMFGFTETNIAENYKIKTRASYFSDSLPPVKIKNLLDNEIYTIEEGFNISDKDMEKEYRGQNKAINKQAYEEISKEHLAVYKIQMCKSVKAPGICIDVDNEDLFFIADKNSFSDDLSKNERIEYNTQSNYIENDFPINELILDTDLISKIELPSENTESLTDFNVDVPVYEKQPAIKKIFTDENTIFQYLYSQTFPLDIRDISLTSSFDDALLFSNKVYSFFSMDYIKTANKVVEAGLFAGWVKQIVNDFVIEANKSNTMDKIADISLIVPYIGLALNVGNETAKGNFENAFEIAGASILLEFIPELLIPVVGAFLLESYIDNKNKIIKTIDNALTKRNEKWSDMYGLIVAQWLSTVNTQFYTIKEGMYKALNYQAQALEEIIKYRYNIYSEKEKSNINIDFNDINSKLNEGINQAIDNINNFINGCSVSYLMKKMIPLAVEKLLDFDNTLKKNLLNYIDENKLYLIGSAEYEKSKVNKYLKTIMPFDLSIYTNDTILIEMFNKYNSEILNNIILNLRYKDNNLIDLSGYGAKVEVYDGVELNDKNQFKLTSSANSKIRVTQNQNIIFNSVFLDFSVSFWIRIPKYKNDGIQNYIHNEYTIINCMKNNSGWKISIRGNRIIWTLIDINGKTKSVFFEYNIREDISEYINRWFFVTITNNLNNAKIYINGKLESNTDIKDIREVIANGEIIFKLDGDIDRTQFIWMKYFSIFNTELSQSNIEERYKIQSYSEYLKDFWGNPLMYNKEYYMFNAGNKNSYIKLKKDSPVGEILTRSKYNQNSKYINYRDLYIGEKFIIRRKSNSQSINDDIVRKEDYIYLDFFNLNQEWRVYTYKYFKKEEEKLFLAPISDSDEFYNTIQIKEYDEQPTYSCQLLFKKDEESTDEIGLIGIHRFYESGIVFEEYKDYFCISKWYLKEVKRKPYNLKLGCNWQFIPKDEGWTE
- KD of the first, rapid step (2:1 heterogeneous ligand model) [3]: 90 nM
- KD of the second, slow step (2:1 heterogeneous ligand model) [3]: 20 nM
